Data on two substances can be found in patent US5871901.

In data set [1] the target is DP-1/E2F-1 heterodimer (murine).
Data set [2] concerns DP-1/E2F-1 + orf 6/7 (in SL2 cells) (Mus musculus? / Homo sapiens? / adenovirus type 5). The experiment in a line: cell_activity. To be noted: enhancement by orf 6/7 over DP-1/E2F-1.

For the substance “Ad5 orf 6/7 protein expressed from pE4 (complete Ad5 orf 6/7 cDNA)”, in data set [1], the transcriptional activity of the adenovirus E2a promoter (pE2a CAT reporter, SL2 cells) is 2 fold.

As to “E2a promoter (-96 to +68), two E2F sites”, the activity in data set [2] was found to be 2 fold.
